Measurements published in patent publication US20250002588A1.

B1: BMP10 (ligand, UniProt O95393 317-424, looked up)
chain: NAKGNYCKRTPLYIDFKEIGWDSWIIAPPGYEAYECRGVCNYPLAEHLTPTKHAIIQALVHLKNSQKASKACCVPTKLEPISILYLDKGVVTYKFKYEGMAVSECGCR
B2: BMP9 (ligand, UniProt Q9UK05 320-429, looked up)
chain: SAGAGSHCQKTSLRVNFEDIGWDSWIIAPKEYEAYECKGGCFFPLADDVTPTKHAIVQTLVHLKFPTKVGKACCVPTKLSPISVLYKDDMGVPTLKYHYEGMSVAECGCR

Target: ALK-1/BMPR-2 receptor pair of the PathHunter U2Os dimerization cells (DiscoverX 93-0962C3) (UniProt P37023)
Test: cell-based or functional assay

ALK-1/BMPR-2 receptor pair of the PathHunter U2Os dimerization cells (DiscoverX 93-0962C3), sequence (P37023 22-503, chain 1 of 2): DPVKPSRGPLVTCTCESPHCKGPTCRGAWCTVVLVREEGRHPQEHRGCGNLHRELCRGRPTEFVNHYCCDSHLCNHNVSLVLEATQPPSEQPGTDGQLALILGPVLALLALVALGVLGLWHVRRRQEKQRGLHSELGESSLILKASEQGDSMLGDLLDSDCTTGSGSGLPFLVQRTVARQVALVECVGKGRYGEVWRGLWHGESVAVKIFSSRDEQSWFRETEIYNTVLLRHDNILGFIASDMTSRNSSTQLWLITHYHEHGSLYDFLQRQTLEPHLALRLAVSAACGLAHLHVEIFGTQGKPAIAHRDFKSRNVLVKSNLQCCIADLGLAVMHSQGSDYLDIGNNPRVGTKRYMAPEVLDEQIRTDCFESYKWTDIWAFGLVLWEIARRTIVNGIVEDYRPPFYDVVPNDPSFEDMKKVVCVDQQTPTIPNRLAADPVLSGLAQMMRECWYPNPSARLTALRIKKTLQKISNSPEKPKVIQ
ALK-1/BMPR-2 receptor pair of the PathHunter U2Os dimerization cells (DiscoverX 93-0962C3), sequence (Q13873 27-1038, chain 2 of 2, further chain): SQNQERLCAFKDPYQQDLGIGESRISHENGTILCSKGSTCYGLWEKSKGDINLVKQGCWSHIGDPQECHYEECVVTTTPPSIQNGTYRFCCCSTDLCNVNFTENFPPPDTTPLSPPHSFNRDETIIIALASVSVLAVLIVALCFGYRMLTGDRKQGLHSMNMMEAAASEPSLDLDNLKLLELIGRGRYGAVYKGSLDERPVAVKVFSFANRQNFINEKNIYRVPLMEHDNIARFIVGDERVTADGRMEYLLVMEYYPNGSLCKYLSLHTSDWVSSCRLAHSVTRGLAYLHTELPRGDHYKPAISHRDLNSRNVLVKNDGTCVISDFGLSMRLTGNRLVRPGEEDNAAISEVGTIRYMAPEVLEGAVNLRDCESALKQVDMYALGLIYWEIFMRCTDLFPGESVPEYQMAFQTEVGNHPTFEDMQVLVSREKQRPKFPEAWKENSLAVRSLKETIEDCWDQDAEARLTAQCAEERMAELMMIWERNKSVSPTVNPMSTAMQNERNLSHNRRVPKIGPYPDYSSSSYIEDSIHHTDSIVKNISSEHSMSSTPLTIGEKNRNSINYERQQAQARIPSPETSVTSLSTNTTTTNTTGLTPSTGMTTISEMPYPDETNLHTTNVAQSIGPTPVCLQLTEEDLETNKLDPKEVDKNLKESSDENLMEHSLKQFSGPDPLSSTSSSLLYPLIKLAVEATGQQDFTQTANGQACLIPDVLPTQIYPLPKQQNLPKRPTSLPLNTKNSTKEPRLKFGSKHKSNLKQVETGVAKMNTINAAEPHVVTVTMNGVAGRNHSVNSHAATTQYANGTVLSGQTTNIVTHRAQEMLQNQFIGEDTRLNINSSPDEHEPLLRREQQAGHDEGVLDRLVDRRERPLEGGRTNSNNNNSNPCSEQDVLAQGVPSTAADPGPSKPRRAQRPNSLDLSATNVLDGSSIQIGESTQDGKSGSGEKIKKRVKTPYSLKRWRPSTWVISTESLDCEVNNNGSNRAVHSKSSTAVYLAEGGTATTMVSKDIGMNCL

Binder	% Emax BMP9 [%]	EC50 [nM]	EMAX (RLU)
B1	97	0.1	2.57e+06
B2	100	0.02	2.64e+06
